Results published in IntAct's records for PubMed 26258637.

B1: Ras-related protein Rab-11A (Homo sapiens), P62491 (parent)
chain: MGTRDDEYDYLFKVVLIGDSGVGKSNLLSRFTRNEFNLESKSTIGVEFATRSIQVDGKTIKAQIWDTAGQERYRAITSAYYRGAVGALLVYDIAKHLTYENVERWLKELRDHADSNIVIMLVGNKSDLRHLRAVPTDEARAFAEKNGLSFIETSALDSTNVEAAFQTILTEIYRIVSQKQMSDRRENDMSPSNNVVPIHVPPTTENKPKVQCCQNI
partner: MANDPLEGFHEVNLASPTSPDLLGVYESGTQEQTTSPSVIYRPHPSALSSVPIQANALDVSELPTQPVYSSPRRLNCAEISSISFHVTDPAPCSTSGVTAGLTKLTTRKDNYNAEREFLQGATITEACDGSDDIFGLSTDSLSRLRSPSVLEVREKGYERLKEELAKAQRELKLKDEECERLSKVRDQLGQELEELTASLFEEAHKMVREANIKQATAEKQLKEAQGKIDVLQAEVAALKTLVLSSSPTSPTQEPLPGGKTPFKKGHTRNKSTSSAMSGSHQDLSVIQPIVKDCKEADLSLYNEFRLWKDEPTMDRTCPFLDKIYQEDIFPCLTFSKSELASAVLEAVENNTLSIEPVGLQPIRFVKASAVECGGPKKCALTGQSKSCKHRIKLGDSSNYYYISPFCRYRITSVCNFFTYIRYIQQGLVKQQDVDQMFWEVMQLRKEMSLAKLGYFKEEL
B2: Rab-3A-interacting protein (Homo sapiens), Q96QF0-2 (parent)
chain: B1 partner

Variants of: B1
Settings: with RAB3IP

| Variant | effect of a mutation on the interaction |
| --- | --- |
| MGTRDDEYDYLFKVVLIGDSGVGKNNLLSRFTRNEFNLESKSTIGVEFATRSIQVDGKTIKAQIWDTAGQERYRAITSAYYRGAVGALLVYDIAKHLTYENVERWLKELRDHADSNIVIMLVGNKSDLRHLRAVPTDEARAFAEKNGLSFIETSALDSTNVEAAFQTILTEIYRIVSQKQMSDRRENDMSPSNNVVPIHVPPTTENKPKVQCCQNI [S25N] | disrupting interaction strength |

Variants of: B2
Settings: with rb11a_human RAB11A

| Variant | effect of a mutation on the interaction |
| --- | --- |
| MANDPLEGFHEVNLASPTSPDLLGVYESGTQEQTTSPSVIYRPHPSALSSVPIQANALDVSELPTQPVYSSPRRLNCAEISSISFHVTDPAPCSTSGVTAGLTKLTTRKDNYNAEREFLQGATITEACDGSDDIFGLSTDSLSRLRSPSVLEVREKGYERLKEELAKAQRELKLKDEECERLSKVRDQLGQELEELTASLFEEAHKMVREANIKQATAEKQLKEAQGKIDVLQAEVAALKTLVLSSSPTSPTQEPLPGGKTPFKKGHTRNKSTSSAMSGSHQDLSVIQPIVKDCKEADLSLYNEFRLWKDEPTMDRTCPFLDKIYQEDIFPCLTFSKSELASAVLEAVENNTLSIEPVGLQPIRFVKASAVECGGPKKCALTGQSKSCKHRIKLGDSSNYYYISPFCRYRITSVCNFFAYIRAIQQGAVKQQDVDQMFWEVMQLRKEMSLAKLGYFKEEL [T419A;Y423A;L428A] | decreasing interaction strength |
